The text below walks through data of the supplement of paper PMC9170038.

In the data set the test system is MS2 coat protein. Kind of data set: apparent KD of MS2 coat protein; designed switch direction (-1 OFF switch, 1 ON switch): -1; higher = weaker reporter binding. In a few lines:
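Normalised cluster fluorescence was curve-fitted, and each design's median over clusters is its apparent KD. Before this, SNAP-549-labelled MS2 coat protein was titrated from 0.7 or 1.5 nM, doubling to 3 µM, over RNA switches transcribed on Illumina chips by stalled E. coli RNA polymerase. Titrations had no input, 200 uM small-molecule ligand, or an oligonucleotide input, and steps lasted 0.8–1.5 h (lowest) to 10–20 min (highest).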

Where [1] appears, read: Eterna round: R95, input ligand: microRNA oligo, concentration not stated.
The mark [2] stands for this setting: input ligand: microRNA oligo, concentration not stated.
Where [3] appears, read: Eterna round: R95, input ligand: FMN 200 uM.
[4] abbreviates: Eterna round: R95, input ligand: none.

For “CUCAUUUGUCAGGAUAUCGUGAGGCUAAUUAUACGAGAAGGGACGACAUGAGGAUCACCCAUGUGGUCUUUGAG [JR_Ex6_Sub082] (Eterna round: R97, puzzle: Exclusion 6)”, the “apparent KD of MS2 coat protein” value runs as follows: (input ligand: FMN 200 uM) 0.161 µM; (input ligand: none) 0.0333 µM.

For “CUCCUACAUGAGGAUCACCCAUGUCAGGAUAUCUCAGUGGCACCUAAAGGCGCCACCCAGAGAAGGGACGUGCA [Soistiis] (puzzle: Exclusion 1)”, the “apparent KD of MS2 coat protein” value under setting [1] is 0.0106 µM.

Regarding “CUCGCUGUAGGAUAUACAUAUGUCCUGUCAGCCGCGGCAGAACAUGAGGAUCACCCAUGUAGAAGGAUAGAGAG [Eternabot (Original) Solution 34] (Eterna round: R97, puzzle: Exclusion 2)”, the “apparent KD of MS2 coat protein” value was 0.0483 µM (input ligand: FMN 200 uM) and 0.0267 µM (input ligand: none).

“CUCGGACAUGAGGAUCACCCAUGUGAGGAUAUGGUGCUAUCGUCAUUAGACGAUUGCGUUAGAAGGCAUAUUUU [LRO-Excl1-30] (puzzle: Exclusion 1)”: under setting [1], the “apparent KD of MS2 coat protein” value was found to be 0.0244 µM.

Consider “CUCGUGCAGCAAAGCUGUACGAGUACAUGAGGAUCACCCAUGUAGGAUAUGGUACGCAAAGCGUGCUAGAAGGAUAUGUGAAAG [Mat - Exclusion NG 3 - Mod of JL - D89] (Eterna round: R96, puzzle: Exclusion NG 3)”, for which the “apparent KD of MS2 coat protein” value (input ligand: FMN 200 uM) stood at 0.0442 µM, the “apparent KD of MS2 coat protein” value under setting [2] worked out at 0.0314 µM and the “apparent KD of MS2 coat protein” value (input ligand: none) is 0.0499 µM.

On to “CUCGUGCAGCUUUGCUGUACGAGUACAUGAGGAUCACCCAUGUAGGAUAUGGUACGCUUUGCGUGCUAGAAGGAUAUGUGUAGG [JL EXNG3 1.38] (Eterna round: R96, puzzle: Exclusion NG 3)”, for which the “apparent KD of MS2 coat protein” value runs as follows: (input ligand: FMN 200 uM) 0.0441 µM; under setting [2], 0.0184 µM; (input ligand: none) 0.0313 µM.

As to “CUCUCACAUGAGGAUCACCCAUGUUAGGAUAUUCCGUAGCGACUUACAAGAGGAGCAGGAAGAAGGAGCCUGGC [Eternabot (L1) Solution 40] (Eterna round: R97, puzzle: Exclusion 1)”, the “apparent KD of MS2 coat protein” value was determined as 0.343 µM (input ligand: FMN 200 uM) and 0.435 µM (input ligand: none).

As to “CUCUUGUCAGGAUAUUAUGGACGAUAGCAGGGCUACGUCAGUGAGAAGGGACAUGAGGAUCACCCAUGUAAAAU [Onatbezaes] (puzzle: Exclusion 4)”, the “apparent KD of MS2 coat protein” value under setting [1] was 0.0771 µM.

Consider “CUCUUGUGAGGAUAUCAGGUGUGCUAGCGUACUGGUACAUCUGAGAAGGCACAUGAGGAUCACCCAUGUUUCUA [Mat - Exclusion 4 - Mod of JL - D40] (puzzle: Exclusion 4)”, for which the “apparent KD of MS2 coat protein” value under setting [1] turned out to be 0.0938 µM.

For the sequence “CUGAGCAGACGGAGAUCCAACAUGAGGAUCACCCAUGUCUCAAAAGCUUCUUGCUCGUCUUAUCCUCCUCUGUUCUC [Maeronqu] (puzzle: Sensor v3, turn-off variant 1)”, the “apparent KD of MS2 coat protein” value under setting [3] is 0.0368 µM, the “apparent KD of MS2 coat protein” value under setting [1] is 0.215 µM and the “apparent KD of MS2 coat protein” value under setting [4] was found to be 0.0331 µM.

Consider “CUGAGGUAGCGGUCCUAUGACAUGAGGAUCACCCAUGUACCUUGCUUUGAGCAUUUUGCUCGUCUUAUGAUUCUCGG [Mat - Sensor v3 - turn-off var 1 - JL Mod - D39] (puzzle: Sensor v3, turn-off variant 1)”, for which the “apparent KD of MS2 coat protein” value was 0.371 µM under setting [3], 0.474 µM under setting [1] and 0.427 µM under setting [4].

For “CUGAGGUAGCGGUCCUAUGACAUGAGGAUCACCCAUGUGCCUCGCUACAAGCUUUUUGCUCGUUUUAUGAUUCUCGG [JL Atriat mod 11] (puzzle: Sensor v3, turn-off variant 1)”, the “apparent KD of MS2 coat protein” value under setting [3] worked out at 0.0712 µM, the “apparent KD of MS2 coat protein” value under setting [1] is 0.0901 µM and the “apparent KD of MS2 coat protein” value under setting [4] was determined as 0.0953 µM.

“CUGCUCCGUGUAGGAUAUCCCGGCAACCAACCGGGAGAAGGACAUGAGGAUCACCCAUGUAUGUUAUUAUCACGUGAAGCGUCC [Design 28] (Eterna round: R96, puzzle: Exclusion NG 1)”: the “apparent KD of MS2 coat protein” value runs as follows: (input ligand: FMN 200 uM) 0.029 µM; under setting [2], 0.0125 µM; (input ligand: none) 0.0199 µM.

On to “CUGCUCCGUGUAGGAUAUGCAUAUUCCCAUUAUGCAGAAGGACAUGAGGAUCACCCAUGUAUGUUAUUAUCAUGUGUUGCAUGC [Design 10] (Eterna round: R96, puzzle: Exclusion NG 1)”, for which the “apparent KD of MS2 coat protein” value came to 0.146 µM (input ligand: FMN 200 uM), 0.0352 µM under setting [2] and 0.0343 µM (input ligand: none).

“CUGCUCCGUGUAGGAUAUGCCCGCACCACCCGGGCAGAAGGACAUGAGGAUCACCCAUGUAUGUUAUUAUCACGUGUGGCGCGC [Design 39] (Eterna round: R96, puzzle: Exclusion NG 1)”: the “apparent KD of MS2 coat protein” value runs as follows: (input ligand: FMN 200 uM) 0.0237 µM; under setting [2], 0.0117 µM; (input ligand: none) 0.0164 µM.

Turning to “CUGCUCCGUGUAGGAUAUGCGCGCAACCAACGCGCAGAAGGACAUGAGGAUCACCCAUGUAUGUUAUUAUCACGUGAGGCGCAG [Design 33] (Eterna round: R96, puzzle: Exclusion NG 1)”, the “apparent KD of MS2 coat protein” value (input ligand: FMN 200 uM) was 0.0289 µM, the “apparent KD of MS2 coat protein” value under setting [2] came out at 0.0132 µM and the “apparent KD of MS2 coat protein” value (input ligand: none) stood at 0.0166 µM.

For the sequence “CUGCUCCGUGUAGGAUAUGCGCGCACCACCCGCGCAGAAGGACAUGAGGAUCACCCAUGUAUGUUAUUAUCACGUGAGGCGCGC [Design 37] (Eterna round: R96, puzzle: Exclusion NG 1)”, the “apparent KD of MS2 coat protein” value is, setting by setting: (input ligand: FMN 200 uM) 0.0168 µM; under setting [2], 0.0109 µM; (input ligand: none) 0.018 µM.

“CUGCUGGAGCUUUGCUUUAGUCGUACAUGAGGAUCACCCAUGUAGGAUAUGGUAGGCUUUGCUUACUAGAAGGAUAGAGUGAUC [salish99_ExNG3_r04_605] (Eterna round: R96, puzzle: Exclusion NG 3)”: the “apparent KD of MS2 coat protein” value came to 0.289 µM (input ligand: FMN 200 uM), 0.0628 µM under setting [2] and 0.0942 µM (input ligand: none).

Turning to “CUGCUGGAGCUUUGCUUUGGUCGUACAUGAGGAUCACCCAUGUAGGAUAUGGUAGGAUUUGCUUGCUAGAAGGAUAGAGUGGUC [salish99_ExNG3_r04_610] (Eterna round: R96, puzzle: Exclusion NG 3)”, the “apparent KD of MS2 coat protein” value (input ligand: FMN 200 uM) was 0.0927 µM, the “apparent KD of MS2 coat protein” value under setting [2] turned out to be 0.0361 µM and the “apparent KD of MS2 coat protein” value (input ligand: none) stood at 0.0545 µM.

In the case of “CUGGAGUCAGGAUAUGACGCAGUCCGCCCAAAUAGCGGAAAUCAGAAGGGACUUGAGGAUCACCCAAGUAAAAG [Qubilexe] (Eterna round: R97, puzzle: Exclusion 4)”, the “apparent KD of MS2 coat protein” value (input ligand: FMN 200 uM) was 0.0297 µM and the “apparent KD of MS2 coat protein” value (input ligand: none) was 0.0218 µM.

Turning to “CUGGUCCGAGGAUAUAUUAAGUGAUACAUGAGGAUCACCCAUGUAAUUUGAUGGAUGUAAAUAGAAGGCGGACUAG [JL-ex5-3.10] (puzzle: Exclusion 5)”, the “apparent KD of MS2 coat protein” value was 0.0368 µM under setting [3], 0.0635 µM under setting [1] and 0.045 µM under setting [4].

As to “CUGGUCCGAGGAUAUAUUAAGUGAUACAUGAGGAUCACCCAUGUUAUUUAAUGGAUGUUAAUAGAAGGCGGACUAG [JL-ex5-3.19] (puzzle: Exclusion 5)”, the “apparent KD of MS2 coat protein” value was 0.0339 µM under setting [3], 0.0439 µM under setting [1] and 0.0348 µM under setting [4].

In the case of “CUGGUCCGAGGAUAUAUUAUGUGAUACAUGAGGAUCACCCAUGUAAUAUGAUGGAAGUAAAUAGAAGGCGGACUAG [Mat - Exclusion 5 - JL mod - D46] (puzzle: Exclusion 5)”, the “apparent KD of MS2 coat protein” value by setting is: under setting [3], 0.0425 µM; under setting [1], 0.0558 µM; under setting [4], 0.0581 µM.

As for “CUGGUCCGAGGAUAUAUUAUGUGAUACAUGAGGAUCACCCAUGUUAUAUGAUGGAUGUUAAUAGAAGGCGGACUAG [JL-ex5-3.20] (puzzle: Exclusion 5)”, the “apparent KD of MS2 coat protein” value by setting is: under setting [3], 0.109 µM; under setting [1], 0.109 µM; under setting [4], 0.184 µM.

Regarding “CUGUACUGAGGAUAUACAUGAGGAUCACCCAUGUGUCCUGGCUAGGAAACUAGCAAAGGUAGAAGGCAGUACAG [Mat - Exclusion 3 - Eli Mod - D54] (Eterna round: R97, puzzle: Exclusion 3)”, the “apparent KD of MS2 coat protein” value came to 0.15 µM (input ligand: FMN 200 uM) and 0.0188 µM (input ligand: none).

On to “CUGUACUGAGGAUAUACAUGAGGAUCACCCAUGUUCCAAGGCUAGGAAACUAGCAAAAGUAGAAGGCAGUACAG [Mat - Exclusion 3 - Eli Mod - D55] (Eterna round: R97, puzzle: Exclusion 3)”, for which the “apparent KD of MS2 coat protein” value reads like this: (input ligand: FMN 200 uM) 0.556 µM; (input ligand: none) 0.0327 µM.

Turning to “CUGUUUUCCGCAGGAUAUGCUCCUCCAUUAUUUGCAGAAGGGCGUUGAACAUGAGGAUCACCCAUGUAUGGAAAUGACUAUUGC [JR_ExcNG1_Sub069] (Eterna round: R96, puzzle: Exclusion NG 1)”, the “apparent KD of MS2 coat protein” value amounted to 0.0195 µM (input ligand: FMN 200 uM), 0.0112 µM under setting [2] and 0.0165 µM (input ligand: none).

“CUUAGUAUCUAGGAUAUCUAGUACAUAGUAUCUAGAGAAGGAGAUACAUGAGGAUCACCCAUGUUCUGUGAUCU [Exclusion 6 - 2:d] (puzzle: Exclusion 6)”: the “apparent KD of MS2 coat protein” value under setting [1] was found to be 0.217 µM.

As for “CUUAGUAUCUAGGAUAUCUAGUACAUAGUAUCUAGAGAAGGAGAUACAUGAGGAUCACCCAUGUUCUGUGUUCU [Exclusion 6 - 1:b] (Eterna round: R96, puzzle: Exclusion 6)”, the “apparent KD of MS2 coat protein” value under setting [2] was 0.0182 µM and the “apparent KD of MS2 coat protein” value (input ligand: none) worked out at 0.0248 µM.

On to “CUUAGUAUCUAGGAUAUCUAGUACAUAGUAUCUAGAGAAGGAGAUACAUGAGGAUCACCCAUGUUCUGUGUUCU [Exclusion 6 - 1:b] (puzzle: Exclusion 6)”, for which the “apparent KD of MS2 coat protein” value under setting [1] was found to be 0.0222 µM.

For “CUUCGACAUGAGGAUCACCCAUGUCAGGAUAUUGUUUAUCUGGUUUUUUACAGAUAUACAAGAAGGGAUGUGUU [LRO-Excl1-02] (puzzle: Exclusion 1)”, the “apparent KD of MS2 coat protein” value under setting [1] came out at 0.0259 µM.
